In patent US20200339702A1 (ULTRAHUMAN THIRTEEN, published 2020):
Substitutions are numbered along the chain they refer to. Names and notes keep the numbering of the source.

How the values were obtained:
[1] = target: T1, human ERBB3 on transiently transfected HEK-293 cells (human, UniProt P21860 20-1342); experiment: flow cytometry, human ERBB3-transfected HEK-293
T1 construct: also called human ERBB3+ HEK-293 cells
Procedure: (§1) Purified IgGs were tested in FACs for binding to human and rhesus monkey ERBB3 expressed on transiently transfected HEK-293 cells and HEK-293 wild-type cells. The IgG samples were titrated in three-fold serial dilutions starting at 500 nM to 0.008 nM. Binding of IgGs was detected with a mouse anti-human IgG conjugated to FITC. Results were analyzed by examining the Mean Fluorescence Intensity (MFI) of 10000 cells per sample in the BL-1 channel detector of a flow cytometer (Attune™ NxT Acoustic Focusing Cytometer, Invitrogen/ThermoFisher Scientific).
(§2) Antibodies to ERBB3 were analysed for concentration-dependent binding at the cell surface via flow cytometry. HEK-293 cells were transiently transfected with either human or rhesus ERBB3 full-length cDNAs. Anti-ERBB3 IgGs and an isotype control were then all tested in IgG1null format, over a concentration range of 500-0.008 nM for binding to human (FIG. 5A) and rhesus (FIG. 5B) transfected cells.

[2] = target: T2, human ERBB3 His tagged, monomeric (human, UniProt P21860 20-643, biotinylated in the Alphascreen assays (sites not given)); experiment: SPR (Biacore), captured IgG, monomeric ERBB3-His analyte
T2 construct: Used unbiotinylated as Biacore analyte and biotinylated in Alphascreen; treated as one molecule; also called human ERBB3-His (Acrobiosystems); biotinylated monomeric human ERBB3
Procedure: (§3) Affinity (KD) of purified IgGs was determined via SPR with antigen in-solution on a Biacore® 3000 (GE). A mouse anti-human antibody (CH1 specific) was immobilized on a CM5 Sensor Chip to a level of 2000 RU in acetate buffer at pH 4.5 using amine coupling following the Wizard instructions for two channels. One channel was used for background signal correction. The standard running buffer HBS-EP pH 7.4 was used. Regeneration was performed with a single injection of 10 μl of 10 mM Glycine at pH 1.5 at […]. IgG samples were injected for 2 minutes at 50 nM at 30 μl/min followed by an off-rate of 60 seconds. The monomeric antigen (human ERBB3 His tagged or rhesus monkey ERBB3 His tag) was injected in two fold serial dilutions from 3 nM down to 0.2 nM, for 2 minutes at 30 μl/min followed by an off-rate of 300 seconds. The obtained sensorgrams were analysed using the Biacore® 3000 evaluation (BlAevaluation) software. The KD was calculated by simultaneous fitting of the association and dissociation phases to a 1:1 Langmuir binding model.
(§4) Biacore® analyses of binding affinity were performed for all IgGs to solution-phase, monomeric human and rhesus ERBB3 proteins.

[3] = target: T3, rhesus monkey ERBB3 His tag, monomeric (rhesus monkey (Macaca mulatta), UniProt P21860 20-643 (human entry), limits assumed); experiment: as above
T3 chain: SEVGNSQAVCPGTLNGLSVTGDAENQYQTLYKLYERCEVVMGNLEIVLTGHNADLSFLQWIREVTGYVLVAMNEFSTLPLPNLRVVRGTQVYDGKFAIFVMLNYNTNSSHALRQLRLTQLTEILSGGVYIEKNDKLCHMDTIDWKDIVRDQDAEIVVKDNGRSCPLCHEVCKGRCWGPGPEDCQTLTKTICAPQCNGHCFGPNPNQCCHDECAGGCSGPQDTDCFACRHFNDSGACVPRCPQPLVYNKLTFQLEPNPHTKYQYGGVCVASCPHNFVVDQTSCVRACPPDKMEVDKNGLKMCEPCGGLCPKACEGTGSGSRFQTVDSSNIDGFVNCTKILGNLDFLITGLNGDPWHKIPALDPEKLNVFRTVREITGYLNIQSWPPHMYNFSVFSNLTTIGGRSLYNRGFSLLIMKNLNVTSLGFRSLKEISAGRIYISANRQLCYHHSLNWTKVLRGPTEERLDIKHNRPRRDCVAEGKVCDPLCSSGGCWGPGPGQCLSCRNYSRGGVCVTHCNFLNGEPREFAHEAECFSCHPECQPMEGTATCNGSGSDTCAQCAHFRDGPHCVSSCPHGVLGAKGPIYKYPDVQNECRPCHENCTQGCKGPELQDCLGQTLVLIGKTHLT
Procedure: as §3, §4

[4] = target: T2, human ERBB3 His tagged, monomeric; experiment: SPR (Biacore)
Procedure: as §3

[5] = target: T3, rhesus monkey ERBB3 His tag, monomeric; experiment: SPR (Biacore)
Procedure: as §3

[6] = target: T4, rhesus ERBB3 on transiently transfected HEK-293 cells (rhesus monkey (Macaca mulatta), UniProt P21860 20-1342 (human entry)); experiment: flow cytometry, rhesus ERBB3-transfected HEK-293
T4 construct: also called rhesus ERBB3+ HEK-293 cells
T4 chain: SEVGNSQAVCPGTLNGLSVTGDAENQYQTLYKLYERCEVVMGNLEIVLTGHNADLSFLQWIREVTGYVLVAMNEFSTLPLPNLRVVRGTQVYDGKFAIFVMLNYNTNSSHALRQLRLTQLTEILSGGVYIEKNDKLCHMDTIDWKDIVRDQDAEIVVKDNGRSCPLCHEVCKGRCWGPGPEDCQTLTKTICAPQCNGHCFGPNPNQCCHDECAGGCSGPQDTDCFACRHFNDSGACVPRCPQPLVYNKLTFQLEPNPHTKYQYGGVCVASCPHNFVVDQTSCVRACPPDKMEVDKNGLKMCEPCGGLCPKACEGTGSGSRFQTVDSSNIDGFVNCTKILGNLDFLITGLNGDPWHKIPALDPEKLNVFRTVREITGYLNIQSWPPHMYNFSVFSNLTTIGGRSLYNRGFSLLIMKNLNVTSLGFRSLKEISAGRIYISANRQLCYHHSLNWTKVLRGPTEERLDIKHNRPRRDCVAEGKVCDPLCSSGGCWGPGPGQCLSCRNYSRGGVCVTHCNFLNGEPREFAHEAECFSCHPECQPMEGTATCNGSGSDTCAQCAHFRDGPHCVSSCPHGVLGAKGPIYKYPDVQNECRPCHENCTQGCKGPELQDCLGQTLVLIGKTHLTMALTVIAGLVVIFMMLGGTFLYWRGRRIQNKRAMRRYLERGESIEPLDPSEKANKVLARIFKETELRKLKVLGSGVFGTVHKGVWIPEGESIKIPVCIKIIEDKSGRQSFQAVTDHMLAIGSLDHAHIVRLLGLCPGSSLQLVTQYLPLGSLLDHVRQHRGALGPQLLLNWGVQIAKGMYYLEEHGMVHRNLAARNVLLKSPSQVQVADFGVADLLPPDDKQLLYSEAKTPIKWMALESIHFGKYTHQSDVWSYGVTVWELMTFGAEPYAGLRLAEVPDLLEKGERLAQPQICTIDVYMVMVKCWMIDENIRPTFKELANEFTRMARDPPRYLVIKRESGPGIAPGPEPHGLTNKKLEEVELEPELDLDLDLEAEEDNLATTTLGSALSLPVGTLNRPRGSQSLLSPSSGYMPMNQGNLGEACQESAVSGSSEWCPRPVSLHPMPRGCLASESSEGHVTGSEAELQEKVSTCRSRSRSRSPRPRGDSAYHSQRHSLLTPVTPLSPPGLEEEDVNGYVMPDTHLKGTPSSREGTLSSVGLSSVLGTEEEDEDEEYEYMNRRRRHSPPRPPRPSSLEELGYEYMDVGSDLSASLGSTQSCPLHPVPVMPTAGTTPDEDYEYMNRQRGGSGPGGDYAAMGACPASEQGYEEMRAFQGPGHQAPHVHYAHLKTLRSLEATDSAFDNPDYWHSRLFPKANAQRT
Procedure: as §1, §2

[7] = target: T2, human ERBB3 His tagged, monomeric; experiment: Alphascreen competition in solution, competitor h24C05 IgG1null, biotinylated human ERBB3-His
Procedure: The AlphaScreen assay (Perkin Elmer) was performed in a 25 μl final volume in 384-well white microtiter plates (Greiner). The reaction buffer contained 1×PBS pH 7.3 (Oxoid, Cat. nr. BR0014G) and 0.05% (v/v) Tween® 20 (Sigma, Cat. nr. P9416). Purified IgG samples were titrated in three fold serial dilutions starting at 100 nM final concentration and incubated with biotinylated human ERBB3-His (Acrobiosystems) at 1 nM final concentration for 20 minutes at room temperature. The parental IgG and the anti-human IgG1 Acceptor beads at were added and the mix was incubated for 1 hour at room temperature. Followed by addition of the Streptavidin Donor beads and incubation for 30 minutes at room temperature. The emission of light was measured in the EnVision multilabel plate reader (Perkin Elmer) and analysed using the EnVision manager software. Values were reported as Counts Per Second (CPS) and corrected for crosstalk.

[8] = target: T2, human ERBB3 His tagged, monomeric; experiment: Alphascreen competition, solution phase; competitor h24C05 IgG1
[9] = target: T5, human insulin (human, UniProt P01308 25-54; P01308 90-110, limits assumed); experiment: polyreactivity ELISA on human insulin, score
T5 construct: Off-target protein in the development risk (polyreactivity) ELISA

[10] = target: T4, rhesus ERBB3 on transiently transfected …; experiment: flow cytometry, rhesus ERBB3-transfected HEK-293 cells, IgG1 titrated
Procedure: as §1

[11] = target: T6, human ERBB3 human Fc tagged recombinant protein (human, UniProt P21860 20-643); experiment: direct binding ELISA on coated human ERBB3-Fc, IgG1 titrated
T6 construct: also called human ERBB3-Fc; huERBB3
Procedure: (§5) Binding and cross-reactivity of the lead panel to the recombinant proteins was initially assessed by binding ELISA. The human ERBB3 human Fc tagged recombinant protein and the rhesus monkey ERBB3 human Fc tagged recombinant protein were coated to the surface of MaxiSorp™ flat-bottom 96 well plate at 1 μg/ml. The purified IgG samples were titrated in two fold serial dilutions starting from 500 nM to 0.008 nM and allowed to bind to the coated antigens. The Fabs were detected using mouse anti-c-myc antibody followed by donkey anti-mouse IgG conjugated to horseradish peroxidase. The IgGs were detected using the mouse anti-human IgG conjugated to horseradish peroxidase. Binding signals were visualized with 3,3′,5,5′-Tetramethylbenzidine Substrate Solution (TMB) and the absorbance measured at 450 nm.

[12] = target: T7, rhesus monkey ERBB3 human Fc tagged recombinant protein (rhesus monkey (Macaca mulatta), UniProt P21860 20-643 (human entry), limits assumed); experiment: direct binding ELISA on coated rhesus ERBB3-Fc, IgG1 titrated
T7 construct: also called rhesus ERBB3-Fc; rhERBB3
T7 chain: T3 chain
Procedure: as §5

T5 sequence (P01308 25-54 limits assumed, chain 1 of 2): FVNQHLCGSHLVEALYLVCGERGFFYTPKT
T5 sequence (P01308 90-110 limits assumed, chain 2 of 2): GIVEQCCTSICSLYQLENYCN

B1: MH3 IgG1null (antibody, V domains shown)
VH: QVQLVESGGGLVKPGGSLRLSCAASGFTFSDYSMSWIRQAPGKGLEWVSTISDSGSTIYYADSVKGRFTISRDNAKNSLYLQMNSLRAEDTAVYYCAREWGDYDGFDFWGQGTLVTVSS
VL: DIQMTQSPSSLSASVGDRVTITCRASQSISSYLSWYQQKPGKAPKLLIYAASSLQSGVPSRFSGSGSGTDFTLTISSLQPEDFATYYCLQYDSTPLTFGGGTKVEIK
notes: Designer (Maximally Humanized) clone; Human IgG1null and human Ckappa
maximum MFI, fold over isotype control background [1]: > 20 fold | Kd [2]: 0.85 nM | koff [2]: 0.0065 s⁻¹ | kon [2]: 7.6e+06 M⁻¹ s⁻¹ | Kd [3]: 0.63 nM | koff [3]: 0.011 s⁻¹ | kon [3]: 1.8e+07 M⁻¹ s⁻¹ | fold reduction in binding affinity against clone MH2 [4]: ~3 fold | fold reduction in binding affinity against clone MH2 [5]: ~3 fold | maximum MFI, fold over isotype control background [6]: > 20 fold

B2: h24C05 IgG1null (antibody, V domains shown)
VH: B1 VH with S33A, S54G, S56T, T57Y, I58T, A61P, S63N, F108Y
VL: B1 VL with S28E, S31G, Y36F, L46S, S53T, Q55D, T94Y, L96Y
notes: Human IgG1null (L234A, L235A, G237A) and human Ckappa; also called humanized 24C05
maximum MFI, fold over isotype control background [1]: > 20 fold | Kd [2]: 0.039 nM | koff [2]: 0.00096 s⁻¹ | kon [2]: 2.5e+07 M⁻¹ s⁻¹ | Kd [3]: 0.18 nM | koff [3]: 0.00074 s⁻¹ | kon [3]: 4.1e+06 M⁻¹ s⁻¹ | IC50 (read off the curve) [7]: ~5 nM | maximum MFI, fold over isotype control background [6]: > 20 fold

B3: h24C05 IgG1 (antibody, V domains shown)
VH: B1 VH with S33A, S54G, S56T, T57Y, I58T, A61P, S63N, F108Y
VL: B1 VL with S28E, S31G, Y36F, L46S, S53T, Q55D, T94Y, L96Y
notes: Human IgG1 and human Ckappa; also called humanized 24C05
IC50 [8]: 1.25 nM | binding result [9]: no binding | EC50 (read off the curve) [10]: ~0.2 nM | EC50 (read off the curve) [11]: ~0.1 nM | EC50 (read off the curve) [12]: ~0.1 nM
